Laboratory results from paper PMC10952841, “Biocatalytic synthesis of 2′‐deoxynucleotide 5′‐triphosphates from bacterial genomic DNA: Proof of principle” (Biotechnology and Bioengineering, 2023).

System: T1, Nc1ncnc2c1ncn2[C@H]1C[C@H](O)[C@@H](COP(=O)(O)O)O1
T1 construct: C-terminal 6x His tag (pET24a), kept; E. coli BL21(DE3) host; Ni-NTA
Assay: purified protein
Type: biochemical, Escherichia coli
Details: 2 mM ATP, 10 mM Mg acetate, 50 mM K acetate, 20 mM Tris-acetate, 37°C, three protein batches (N = 3)

adenylate kinase (adk) (Escherichia coli K-12)
Km: 359 ± 84 µM | Vmax: 47.9 µmol/min/mg
